This is an account of results in publication doi:10.1101/379495v1.

Substrate in the series: O=[N+]([O-])c1ccc(O[C@@H]2O[C@@H](CO)[C@H](O)[C@H]2O)cc1
The experiment in a line: purified protein. The note with it: general assay: sodium acetate buffer pH 5.5, 37 °C.

B1: BLLJ_1852 (Bifidobacterium longum subsp. longum JCM 1217) (protein)
chain: DTVPTNNLIAAYDFTTKPSDGKTVANSAPNATLGAAEVQNSADSLWADDALTLSGGAKTGTGDWVKLPSNLLSGKDAATVQLEVKADSSMLNAFHFLWNIGNDSSDTEYFFATLNCGSSRNPLVGLKSGGTETLVQSSSCVAKADQWLSVTATIDGTAAKLYIDGTQVASGTVPAKLSSVKDQSLNTIGRSPWPDNLFKGAVSNFRVYDAALTADQVAAISTADASIHAGELTGSVLNGIIIPTTVDDPFISLPTANGVTWASSDSSVIATDGTVNQPAKGEAAKTVTLTAAVTVRGQTATKEFTVTVNPTTKTAAEQLKEVAAGYVIPSVVRSGDALPAAVNGTTVTVTSTKDVAVEDGKITIDGDEATTGTITVEFSKNGLAGIEPITKAFTVKVLPAAKSATIAAYDRNATGENEANNGDVAYSMHLALQNADGSYTPYNENYGIFFARSPKAQKLNENLDGNDYRSLKDPSLFRMADGTYGVISVRTNRGTATGDSTAKSSVLIATSEDLLTYSEQENSGSIVDLGETNGVNAPYAVYDTASKQYVVGWADDNGVAKYTTFDSLKGSTSKHGSVLYGSVAKSGVLAADGVQGIANFRSGATIAVDEATVKALNTRYGRSENTGTSNLTDITVKKGASIDEVTAQLPKNVDLTYSDGSTGSLPISSWNTEGIDLTKVGDYTVTGTVKQTEYQIPFAEDRADPSVYKWQWTHEADGKEVTETKFLMIASNDIQGDVTWQHGSPHMPFRMADTISGLADEPGNPNALIQSNGYNNKEVSLLKAGDKDSEGNAIMHSFWAPEIHEIDGRLTILFMAGYGNTWSNGKSVYMQLKQDADGHDLDPADPDNWTVPTPIYRNDASLLNGNKQLAATASGGVGMSLDMTYFQDADGRSYYAWQQLGATYIATMDPKDPAHVTSSPVRIVTPEYAWNAAIAEGPNVTLRDGKLYLMFSGSGVGKTYTTGLAVADASGTDLTDPASWTVLNYPIQKSGPFNGEMQLGTGHGMWSEDEDGNQIYVFHAYATKNLGSVNATGRDMFVRRVHWAADGMPVFDMSSSEELASKTVSVTVKVVDDTVTVDKTDLSKALASAKQLRESDYTAASWKAFAAALASAEKVYADENASQKDVDDATAALNKAQAALVKVDGSDSGDGSSDSTKPGDGSSIDAGATGDKTGNKLGLS
Broadly, the Km is the concentration of substrate that gives half-maximal velocity. In general, kcat refers to the maximal rate divided by the concentration of active sites. As to B1, the Km amounted to 9.8 mM and the kcat turned out to be 19.2 s⁻¹.
